# Laboratory results taken from patent US20210388087A1 (Chugai, published 2021).
# T1: Human CD3eg linker (human)
# T1 construct: single-chain construct; also called recombinant human CD3
# T1 chain: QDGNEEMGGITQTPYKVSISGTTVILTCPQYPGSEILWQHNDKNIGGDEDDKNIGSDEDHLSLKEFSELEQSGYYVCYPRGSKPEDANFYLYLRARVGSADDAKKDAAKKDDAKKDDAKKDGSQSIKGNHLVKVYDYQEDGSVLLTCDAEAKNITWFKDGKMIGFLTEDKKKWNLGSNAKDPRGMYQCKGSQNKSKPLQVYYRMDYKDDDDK
# Molecular target: T1, Human CD3eg linker
# Assay: SPR, vs unmutated H183/L072
row,fold change of affinity [fold],Binder
1,0.5,"dBBDu183H S100aQ/dBBDu072L (antibody, name in Kabat numbering, V domains shown) VH: QVQLVESGGGLVQPGRSLRLSCAASGFTFSNAWMHWVRQAPGKGLEWVAQIKDKGNAYAAYYAPSVKGRFTISRDDSKNSIYLQMNSLKTEDTAVYYCHYVHYASAQTVLPAFGVDAWGQGTTVTVSS VL: DIVMTQSPLSLPVTPGEPASISCQASQELVHMNRNTYLHWYQQKPGQAPRLLIYKVSNRFPGVPDRFSGSGSGTDFTLKISRVEAEDVGVYYCAQGTSVPFTFGQGTKLEIK"
2,0.6,"dBBDu183H S100aR/dBBDu072L (antibody, name in Kabat numbering, V domains shown) VH: QVQLVESGGGLVQPGRSLRLSCAASGFTFSNAWMHWVRQAPGKGLEWVAQIKDKGNAYAAYYAPSVKGRFTISRDDSKNSIYLQMNSLKTEDTAVYYCHYVHYASARTVLPAFGVDAWGQGTTVTVSS VL: DIVMTQSPLSLPVTPGEPASISCQASQELVHMNRNTYLHWYQQKPGQAPRLLIYKVSNRFPGVPDRFSGSGSGTDFTLKISRVEAEDVGVYYCAQGTSVPFTFGQGTKLEIK"
3,0.9,"dBBDu183H S100aT/dBBDu072L (antibody, name in Kabat numbering, V domains shown) VH: QVQLVESGGGLVQPGRSLRLSCAASGFTFSNAWMHWVRQAPGKGLEWVAQIKDKGNAYAAYYAPSVKGRFTISRDDSKNSIYLQMNSLKTEDTAVYYCHYVHYASATTVLPAFGVDAWGQGTTVTVSS VL: DIVMTQSPLSLPVTPGEPASISCQASQELVHMNRNTYLHWYQQKPGQAPRLLIYKVSNRFPGVPDRFSGSGSGTDFTLKISRVEAEDVGVYYCAQGTSVPFTFGQGTKLEIK"
4,1.6,"dBBDu183H S100aW/dBBDu072L (antibody, name in Kabat numbering, V domains shown) VH: QVQLVESGGGLVQPGRSLRLSCAASGFTFSNAWMHWVRQAPGKGLEWVAQIKDKGNAYAAYYAPSVKGRFTISRDDSKNSIYLQMNSLKTEDTAVYYCHYVHYASAWTVLPAFGVDAWGQGTTVTVSS VL: DIVMTQSPLSLPVTPGEPASISCQASQELVHMNRNTYLHWYQQKPGQAPRLLIYKVSNRFPGVPDRFSGSGSGTDFTLKISRVEAEDVGVYYCAQGTSVPFTFGQGTKLEIK"
5,1,"dBBDu183H S100aV/dBBDu072L (antibody, name in Kabat numbering, V domains shown) VH: QVQLVESGGGLVQPGRSLRLSCAASGFTFSNAWMHWVRQAPGKGLEWVAQIKDKGNAYAAYYAPSVKGRFTISRDDSKNSIYLQMNSLKTEDTAVYYCHYVHYASAVTVLPAFGVDAWGQGTTVTVSS VL: DIVMTQSPLSLPVTPGEPASISCQASQELVHMNRNTYLHWYQQKPGQAPRLLIYKVSNRFPGVPDRFSGSGSGTDFTLKISRVEAEDVGVYYCAQGTSVPFTFGQGTKLEIK"

# More lines, now with the values behind:
row,Binder,fold change of affinity [fold]
1,"dBBDu183H S100aH/dBBDu072L (antibody, name in Kabat numbering, V domains shown) VH: QVQLVESGGGLVQPGRSLRLSCAASGFTFSNAWMHWVRQAPGKGLEWVAQIKDKGNAYAAYYAPSVKGRFTISRDDSKNSIYLQMNSLKTEDTAVYYCHYVHYASAHTVLPAFGVDAWGQGTTVTVSS VL: DIVMTQSPLSLPVTPGEPASISCQASQELVHMNRNTYLHWYQQKPGQAPRLLIYKVSNRFPGVPDRFSGSGSGTDFTLKISRVEAEDVGVYYCAQGTSVPFTFGQGTKLEIK",1.1
2,"dBBDu183H S100aN/dBBDu072L (antibody, name in Kabat numbering, V domains shown) VH: QVQLVESGGGLVQPGRSLRLSCAASGFTFSNAWMHWVRQAPGKGLEWVAQIKDKGNAYAAYYAPSVKGRFTISRDDSKNSIYLQMNSLKTEDTAVYYCHYVHYASANTVLPAFGVDAWGQGTTVTVSS VL: DIVMTQSPLSLPVTPGEPASISCQASQELVHMNRNTYLHWYQQKPGQAPRLLIYKVSNRFPGVPDRFSGSGSGTDFTLKISRVEAEDVGVYYCAQGTSVPFTFGQGTKLEIK",0.8
3,"dBBDu183H S100aK/dBBDu072L (antibody, name in Kabat numbering, V domains shown) VH: QVQLVESGGGLVQPGRSLRLSCAASGFTFSNAWMHWVRQAPGKGLEWVAQIKDKGNAYAAYYAPSVKGRFTISRDDSKNSIYLQMNSLKTEDTAVYYCHYVHYASAKTVLPAFGVDAWGQGTTVTVSS VL: DIVMTQSPLSLPVTPGEPASISCQASQELVHMNRNTYLHWYQQKPGQAPRLLIYKVSNRFPGVPDRFSGSGSGTDFTLKISRVEAEDVGVYYCAQGTSVPFTFGQGTKLEIK",0.9
